How the values were obtained:
Fyn [1] = assay: Fyn phosphorylation in HEK293 cells stably expressing ErbB4 and Fyn-V5 (Western blot); type: cell-based
Description: (§1) To determine whether NRG1-induced activation of ErbB4 leads to Fyn phosphorylation, NRG1 exposure of HEK293 cells stably expressing ErbB4 and Fyn-V5 were activated with 7.2 nM NRG1 (R&D Systems; Minneapolis, Minn.) for 10 minutes and lysed using RIPA buffer. […] There was no change in Fyn Tyr531 phosphorylation. […] Fyn is activated either by dephophorylation of Tyr531 with loss of the SH2 domain interaction, or through displacement of the SH2 domain by a second tyrosine phosphorylated binding partner allowing auto-phosphorylation on the Fyn activation loop residue Tyr420. Alternatively, Fyn can be phosphorylated on Tyr420 and activated directly by a second kinase. Thus, the NRG1-stimulated increase in Fyn Tyr420 phosphorylation may be through stimulation of Fyn auto-phosphorylation, through phosphorylation of Fyn by ErbB4, or through phosphorylation of Fyn by an ErbB4 activated tyrosine kinase other than Fyn.
These alternatives were distinguished by applying PP2 (25 nM; Calbiochem, San Diego, Calif.) a relatively selective Src-family kinase inhibitor, to inhibit Fyn while ErbB4 signaling was stimulated with NRG1. […] Fyn was phosphorylated at a low level on Tyr420 under basal conditions. […] After NRG1 stimulation, an increase in Fyn Tyr420 phosphorylation was seen, even under conditions in which PP2 was used to inhibit p59 Fyn autophosphorylation. […] Thus, ErbB4 or an ErbB4 activated tyrosine kinase may phosphorylate Fyn on Tyr420 in response to NRG1 stimulation and activate the kinase directly.

ErbB4 [2] = assay: ErbB4 tyrosine phosphorylation in HEK293 cells (Western blot); type: cell-based; conditions: HEK293 cells expressing ErbB4 and Fyn-V5, 7.2 nM NRG1 for 10 minutes
Description: as §1
Thus, NRG1-induced ErbB4 phosphorylation under conditions in which Fyn and related Src-family kinases were inhibited by PP2 (selective Src-family kinase inhibitor described above). […] This may result in the creation of additional SH2 domain docking sites, thus leading to further activation of Fyn as part of a positive feedback mechanism involving NRG1, ErbB4 and Src-family kinases.

MAPK p44/42 = MAPK p44/42 activation in HEK293 cells stably expressing ErbB4 and Fyn-V5; type: cell-based; conditions: 7.2 nM NRG1 for 10 minutes
ErbB4 [3] = assay: ErbB4 tyrosine phosphorylation and kinase activity in CHO-K1 cells expressing ErbB4; type: cell-based
Description: The initial step of NRG1 signaling is activation of ErbB4 kinase activity and auto-phosphorylation on tyrosine residues. An increase in ErbB4 tyrosine phosphorylation and associated kinase activity was observed when CHO-K1 cells (ECACC Accession No. 85051005) expressing ErbB4 were exposed to NRG1 (recombinant human HRG-αEGF domain; R&D Systems, Minneapolis, Minn.) in serum free medium for 0-15 minutes. Following immunoprecipitation of ErbB4, kinase activity was measured using a peptide substrate. Maximum ErbB4 kinase activity was detected within 1 minute of NRG1 exposure but returned to the pre-stimulation level by 15 minutes.
Target sequence in this assay (Q15303 26-1308): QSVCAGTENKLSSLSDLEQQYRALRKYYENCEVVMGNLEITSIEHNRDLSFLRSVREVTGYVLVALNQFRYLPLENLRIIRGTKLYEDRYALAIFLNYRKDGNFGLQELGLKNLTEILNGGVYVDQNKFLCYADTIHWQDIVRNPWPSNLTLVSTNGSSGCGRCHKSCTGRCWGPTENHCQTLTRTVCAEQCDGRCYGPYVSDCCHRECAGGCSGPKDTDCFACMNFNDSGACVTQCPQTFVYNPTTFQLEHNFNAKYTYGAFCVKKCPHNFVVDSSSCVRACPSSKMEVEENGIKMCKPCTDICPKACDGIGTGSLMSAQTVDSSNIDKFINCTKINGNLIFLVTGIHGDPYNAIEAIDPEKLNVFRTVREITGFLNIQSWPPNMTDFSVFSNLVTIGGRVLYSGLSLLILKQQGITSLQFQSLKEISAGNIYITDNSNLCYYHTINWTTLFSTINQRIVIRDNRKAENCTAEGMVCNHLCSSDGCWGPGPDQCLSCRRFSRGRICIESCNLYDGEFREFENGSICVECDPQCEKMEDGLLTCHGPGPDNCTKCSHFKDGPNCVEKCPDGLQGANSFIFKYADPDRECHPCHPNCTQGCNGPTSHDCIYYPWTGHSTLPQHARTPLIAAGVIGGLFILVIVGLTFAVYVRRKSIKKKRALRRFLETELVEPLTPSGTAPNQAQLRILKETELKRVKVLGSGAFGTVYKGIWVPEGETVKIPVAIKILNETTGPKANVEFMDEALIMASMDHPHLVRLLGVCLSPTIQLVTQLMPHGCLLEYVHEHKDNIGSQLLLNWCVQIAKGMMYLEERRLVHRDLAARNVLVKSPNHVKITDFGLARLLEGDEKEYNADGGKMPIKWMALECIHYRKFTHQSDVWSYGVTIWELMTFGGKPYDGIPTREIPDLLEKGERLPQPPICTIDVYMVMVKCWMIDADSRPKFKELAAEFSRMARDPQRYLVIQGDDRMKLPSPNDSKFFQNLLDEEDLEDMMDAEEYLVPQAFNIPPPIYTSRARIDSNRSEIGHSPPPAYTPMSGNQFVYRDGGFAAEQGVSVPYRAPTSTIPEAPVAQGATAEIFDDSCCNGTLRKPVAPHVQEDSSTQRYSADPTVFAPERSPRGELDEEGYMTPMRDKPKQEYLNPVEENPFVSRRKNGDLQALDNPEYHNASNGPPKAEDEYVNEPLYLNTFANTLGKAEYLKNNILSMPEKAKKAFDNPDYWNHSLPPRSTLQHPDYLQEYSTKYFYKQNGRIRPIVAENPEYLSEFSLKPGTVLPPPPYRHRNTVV

Fyn [4] = assay: Fyn kinase activity after NRG1 stimulation of cells; type: cell-based
Description: To test if the observed increase in Fyn Tyr420 phosphorylation was associated with enhanced catalytic activity, Fyn kinase activity was measured after NRG1 stimulation. Fyn kinase activity was increased within 5 minutes of NRG1 stimulation, reached maximum activity after 7 minutes, and returned to pre-stimulation levels within 15 minutes.

[5] = tested on: MAPK pathway (serum response element luciferase reporter); assay: SRE-luciferase reporter gene assay in CHO-K1 cells expressing ErbB4 or ErbB4 and Fyn; type: cell-based
Description: CHO-K1 cells expressing only ErbB4 were constructed, and subsequently a subclone co-expressing Fyn was identified. The parental ErbB4 expressing cell line and the subclone co-expressing ErbB4 and Fyn continued to express similar levels of ErbB4 as shown by Western blot. The cells also contained a reporter gene sensitive to MAPK pathway activation, the luciferase gene under the control of a promoter containing a serum response element (SRE). The cells were activated for 4 hours with 0-57.6 nM and the luciferase assay was performed using the Dual-Luciferase Reported assay system (Promega, Madison, Wis.) according to the manufacturer's instructions. Induction of the luciferase reporter gene by NRG1 was amplified two-fold (p<0.05) in cells co-expressing ErbB4 and Fyn as compared to cells expressing only ErbB4. No significant differences in baseline luciferase activity or in NRG1 EC50 (˜1 nM) were found between the two cell lines.

ErbB4 [6] = target: T1, ErbB4 (Homo sapiens, UniProt Q15303); assay: ErbB4 tyrosine phosphorylation in differentiated BE(2)-M17 neuroblastoma cells; type: cell-based; conditions: stimulation for 10 minutes
T1 construct: host or cells: BE(2)-M17 neuroblastoma, retinoic-acid differentiated
Description: (§2) Studies were carried out to determine if NRG1 signaling, mediated by activation of Src-family kinases, results in changes in the phosphorylation state of regulatory tyrosine residues on NR2B. BE(2)-M 17 human neuroblastoma cells (ECACC No. 95011816) have a neuron-like appearance after differentiation for 72 hours in the presence of 10 μM retinoic acid (RA; Sigma, St. Louis, Mo.) (Hanada et al., Can. Res. 53: 4978-4986, 1993). […] As RA differentiation induces NR2B, but not NR2A, expression, it was expected that the functional NMDA receptor channels expressed in these cells comprised of NR1 and NR2B subunits. Stimulation of differentiated BE(2)-M17 cells with NRG1 for 10 minutes increased ErbB4 tyrosine phosphorylation (FIG. 2), increased Fyn/Src Tyr420 phosphorylation (indicative of increased Src-family kinase activity), and increased Pyk2 Tyr402 phosphorylation. Pyk2 Tyr402 is an auto-phosphorylation site involved in Src-family kinase recruitment (Dikic et al., Nature 383: 547-550, 1996). In addition, a coincident increase in NR2B Tyr1472 phosphorylation was also observed (FIG. 2). Thus, NRG1 signaling through ErbB4 modulates NR2B tyrosine phosphorylation in neuroblastoma cells.

Fyn/Src = Fyn/Src Tyr420 phosphorylation in differentiated BE(2)-M17 neuroblastoma cells; type: cell-based, human; conditions: stimulation for 10 minutes
Description: as §2

Pyk2 = Pyk2 Tyr402 phosphorylation in differentiated BE(2)-M17 neuroblastoma cells; type: cell-based, human; conditions: stimulation for 10 minutes
Description: as §2

NR2B = NR2B Tyr1472 phosphorylation in differentiated BE(2)-M17 neuroblastoma cells; type: cell-based, human; conditions: stimulation for 10 minutes
Description: as §2

[7] = tested on: NMDA receptor NR2B subunit; assay: NR2B tyrosine phosphorylation in SK-N-BE(2)-M17 cells grown with retinoic acid; type: cell-based; conditions: immunoprecipitation, anti-phosphotyrosine Western blot
Description: To determine if D150838 modulates tyrosine phosphorylation of the NMDA receptor, SK-N-BE(2)-M17 cells were grown for 72 house in the presence of retinoic acid to induce expression of the NMDA receptor NR2B subunit. The cells were contacted with NRG1 or D150838, the NR2B subunit was immunoprecipitated, and the level of tyrosine phosphorylation was detected by Western blot analysis with an anti-phosphotyrosine antibody. […] Phosphorylation of tyrosine residue 1472 was detected after exposure to D150838.

Sequence of Fyn (P06241 whole entry, species assumed, the tested form may be a part): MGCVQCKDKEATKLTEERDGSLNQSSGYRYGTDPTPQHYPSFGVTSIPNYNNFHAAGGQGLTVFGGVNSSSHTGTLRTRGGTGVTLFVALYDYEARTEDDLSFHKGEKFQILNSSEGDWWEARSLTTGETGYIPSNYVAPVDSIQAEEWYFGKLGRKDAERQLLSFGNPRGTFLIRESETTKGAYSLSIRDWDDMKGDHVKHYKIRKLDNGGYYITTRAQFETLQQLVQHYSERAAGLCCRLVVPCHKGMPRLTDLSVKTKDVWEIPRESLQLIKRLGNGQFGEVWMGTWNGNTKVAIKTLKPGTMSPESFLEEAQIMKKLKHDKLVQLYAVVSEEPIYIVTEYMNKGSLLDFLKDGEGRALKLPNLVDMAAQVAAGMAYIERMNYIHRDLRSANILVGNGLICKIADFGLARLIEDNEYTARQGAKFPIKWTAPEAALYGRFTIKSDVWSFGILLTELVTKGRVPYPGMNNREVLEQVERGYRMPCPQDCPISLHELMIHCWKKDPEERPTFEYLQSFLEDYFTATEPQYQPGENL
T1 sequence (Q15303 26-1308): as the sequence (Q15303 26-1308) above

B1: NRG1: recombinant human HRG-αEGF domain; R&D Systems; polypeptide growth factor Neuregulin 1 (protein)
chain: SHLVKCAEKEKTFCVNGGECFMVKDLSNPSRYLCKCQPGFTGARCTENVPMKVQNQEKAEELYQK
- Fyn Tyr420 phosphorylation (Fyn [1]; 7.2 nM NRG1 for 10 minutes): phosphorylation of Fyn on Tyr420
- Fyn Tyr531 phosphorylation (Fyn [1]; 7.2 nM NRG1 for 10 minutes): no change
- Fyn Tyr420 phosphorylation after NRG1 stimulation with PP2 present (Fyn [1]; PP2 used to inhibit Fyn autophosphorylation): increase
- ErbB4 tyrosine phosphorylation (ErbB4 [2]): tyrosine phosphorylation of ErbB4
- MAPK p44/42 Thr202/Tyr204 phosphorylation (MAPK p44/42): increase
- time of return of ErbB4 kinase activity to pre-stimulation level (ErbB4 [3]; after NRG1 exposure): ≤ 15 min
- time to maximum ErbB4 kinase activity (ErbB4 [3]; after NRG1 exposure): ≤ 1 min
- ErbB4 tyrosine phosphorylation and associated kinase activity (ErbB4 [3]; serum free medium, 0-15 minutes): increase
- time of maximum Fyn kinase activity (Fyn [4]; after NRG1 stimulation): 7 min
- time of return of Fyn kinase activity to pre-stimulation levels (Fyn [4]; after NRG1 stimulation): ≤ 15 min
- time to increased Fyn kinase activity (Fyn [4]; after NRG1 stimulation): ≤ 5 min
- Fyn kinase activity (Fyn [4]; cells co-expressing Fyn and catalytically inactive ErbB4 D843A mutant): No increase
- EC50 ([5]; 4 hours, 0-57.6 nM, no significant difference between the two cell lines, read-out: EC50, luciferase reporter induction): ~1 nM
- amplification of luciferase reporter induction in cells co-expressing ErbB4 and Fyn compared to cells expressing only ErbB4 ([5]; p<0.05): two-fold
- ErbB4 tyrosine phosphorylation (ErbB4 [6]): increased
- Fyn/Src Tyr420 phosphorylation (Fyn/Src): increased
- Pyk2 Tyr402 phosphorylation (Pyk2): increased
- NR2B Tyr1472 phosphorylation (NR2B): increase
- tyrosine phosphorylation of the NR2B subunit [7]: induced tyrosine phosphorylation

— patent US20060029546A1, “Materials and methods for identifying anti-schizophrenic agents” (deCODE Genetics, Inc., priority 2004, published 2006)
